Laboratory results from the supplement of paper PMC10567573.

B1: PLD5 (parent)
chain: KRTYWPDLDAKIREALVLRSVRVR
B2: SNAP91 (parent)
chain: FATASAAVPVSTSKPSSDLLDLQP

Variants of: B1
Experiment: protein stability index of a GFP-peptide fusion (GPS, HEK-293T) (PSI 1-6); higher = more stable
Details: c terminus: a fixed tail appended
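Note: lentivirally expressed fusions sorted by FACS into six bins by GFP to DsRed ratio, PSI derived from sequencing read proportions per bin multiplied by bin number.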

| Variant | protein stability index |
| --- | --- |
| KRTYWPDLDAKIREALVYRSVRVR | 2.09 |
| KRTYWPDLDAKIREALVWRSVRVR | 2.04 |
| KRTYWPDLDAKIREALVKRSVRVR | 2.64 |
| KRTYWPDLDAKIREALVVRSVRVR | 1.6 |
| KRTYWPDLDAKIREALVHRSVRVR | 2.16 |
| KRTYWPDLDAKIREALVSRSVRVR | 1.88 |
| KRTYWPDLDAKIREALVGRSVRVR | 1.91 |
| KRTYWPDLDAKIREALVERSVRVR | 2.93 |
| KRTYWPDLDAKIREALVFRSVRVR | 1.78 |
| KRTYWPDLDAKIREALVMRSVRVR | 1.51 |
| KRTYWPDLDAKIREALVRRSVRVR | 2.12 |
| KRTYWPDLDAKIREALVLRSVKVR | 1.99 |
| KRTYWPDLDAKIREALVLRSVGVR | 1.65 |
| KRTYWPDLDAKIREALVLRSVYVR | 1.61 |
| KRTYWPDLDAKIREALVLRSVVVR | 2.14 |
| KRTYWPDLDAKIREALVLRSVSVR | 2.14 |
| KRTYWPDLDAKIREALVLRSVAVR | 1.45 |
| KRTYWPDLDAKIREALVLRSVPVR | 1.65 |
| KRTYWPDLDAKIREALVLRSVCVR | 2.32 |
| KRTYWPDLDAKIREALVLRSVDVR | 2.31 |
| KRTYWPDLDAKIREALVLRSVTVR | 1.59 |
| KRTYWPDLDAKIREALVLRSVEVR | 2.02 |
| KRTYWPDLDAKIREALVLRSVHVR | 1.51 |
| KRTYWPDLDAKIREALVLRSVLVR | 1.4 |
| KRTYWPDLDAKIREALVLSSVRVR | 1.8 |

| Variant | protein stability index |
| --- | --- |
| KRTYWPDLDAKIREALVLNSVRVR | 2.8 |
| KRTYWPDLDAKIREALVLHSVRVR | 1.48 |
| KRTYWPDLDAKIREALVLYSVRVR | 2.67 |
| KRTYWPDLDAKIREALVLCSVRVR | 2.36 |
| KRTYWPDLDAKIREALVLKSVRVR | 1.45 |
| KRTYWPDLDAKIREALVLTSVRVR | 2.53 |
| KRTYWPDLDAKIREALVLQSVRVR | 2.53 |
| KRTYWPDLDAKIREALVLESVRVR | 1.69 |
| KRTYWPDLDAKIREALWLRSVRVR | 1.3 |
| KRTYWPDLDAKIREALGLRSVRVR | 2.11 |
| KRTYWPDLDAKIREALQLRSVRVR | 1.57 |
| KRTYWPDLDAKIREALTLRSVRVR | 1.57 |
| KRTYWPDLDAKIREALKLRSVRVR | 1.79 |
| KRTYWPDLDAKIREALHLRSVRVR | 3.18 |
| KRTYWPDLDAKIREALLLRSVRVR | 1.91 |
| KRTYWPDLDAKIREALELRSVRVR | 1.6 |
| KRTYWPDLDAKIREALRLRSVRVR | 1.32 |
| KRTYWPDLDAKIREALMLRSVRVR | 2.18 |
| KRTYWPDLDAKIREALNLRSVRVR | 5.34 |
| KRTYWPDLDAKIREALILRSVRVR | 1.11 |
| KRTYWPDLDAKIREALSLRSVRVR | 1.95 |
| KRTYWPDLDAKIRAALVLRSVRVR | 1.09 |
| KRTYWPDLDAKIRSALVLRSVRVR | 1.13 |
| KRTYWPDLDAKIRKALVLRSVRVR | 1.68 |
| KRTYWPDLDAKIRQALVLRSVRVR | 1.88 |

| Variant | protein stability index |
| --- | --- |
| KRTYWPDLDAKIRCALVLRSVRVR | 1.46 |
| KRTYWPDLDAKIRHALVLRSVRVR | 1.27 |
| KRTYWPDLDAKIRGALVLRSVRVR | 2.75 |
| KRTYWPDLDAKIRTALVLRSVRVR | 2.42 |
| KRTYWPDLDAKIRPALVLRSVRVR | 2.13 |
| KRTYWPDLDLKIREALVLRSVRVR | 2.05 |
| KRTYWPDLDVKIREALVLRSVRVR | 1.93 |
| KRTYWPDLDYKIREALVLRSVRVR | 2.61 |
| KRTYWPDLDIKIREALVLRSVRVR | 2.54 |
| KRTYWPDLDPKIREALVLRSVRVR | 2.36 |
| KRTYWPDLDTKIREALVLRSVRVR | 2.33 |
| KRTYWPDLDAKIREALVLRSRRVR | 2.4 |
| KRTYWPDLDAKIREALVLRSKRVR | 2.75 |
| KRTYWPDLDAKIREALVLRSIRVR | 1.66 |
| KRTYWPDLDAKIREALVLRSERVR | 2.24 |
| KRTYWPDLDAKIREALVLRSTRVR | 1.91 |
| KRTYWPDLDAKIREALVLRSYRVR | 2.68 |
| KRTYWPDLDAKIREALVLRSNRVR | 2.48 |
| KRTYWPDLDAKIREALVLRSQRVR | 2 |
| KRTYWPDLDAKIREALVLRSGRVR | 2.4 |
| KRTYWPDLDAKIREALVLRSHRVR | 2.11 |
| KRTYWPDLDAKIREALVLRSMRVR | 2.51 |
| KRTYWPDLDAKIREALVLRSARVR | 1.84 |
| KRTYWPDLDAKIREALVLRSSRVR | 2.09 |
| KRTYWPDLDAKIREALVLRSFRVR | 3.54 |

Variants of: B2
Experiment: as above
Details: c terminus: a fixed tail appended

| Variant | protein stability index |
| --- | --- |
| FCTASAAVPVSTSKPSSDLLDLQP | 3.09 |
| VATASAAVPVSTSKPSSDLLDLQP | 4.54 |
| YATASAAVPVSTSKPSSDLLDLQP | 3.8 |
| EATASAAVPVSTSKPSSDLLDLQP | 5.69 |
| GATASAAVPVSTSKPSSDLLDLQP | 4.89 |
| PATASAAVPVSTSKPSSDLLDLQP | 4.84 |
| DATASAAVPVSTSKPSSDLLDLQP | 5.71 |
| TATASAAVPVSTSKPSSDLLDLQP | 4.91 |
| LATASAAVPVSTSKPSSDLLDLQP | 4.62 |
| CATASAAVPVSTSKPSSDLLDLQP | 4.64 |
| NATASAAVPVSTSKPSSDLLDLQP | 4.53 |
| AATASAAVPVSTSKPSSDLLDLQP | 4.84 |
| IATASAAVPVSTSKPSSDLLDLQP | 4.5 |
| KATASAAVPVSTSKPSSDLLDLQP | 4.92 |
| MATASAAVPVSTSKPSSDLLDLQP | 4.67 |
| SATASAAVPVSTSKPSSDLLDLQP | 4.99 |
| QATASAAVPVSTSKPSSDLLDLQP | 5.06 |
| RATASAAVPVSTSKPSSDLLDLQP | 4.99 |
| HATASAAVPVSTSKPSSDLLDLQP | 5.52 |
